Data: patent publication US20150368311A1 (Sanofi, published 2015)
Non-standard residues stand in square brackets, D forms with d. No end group written: not given here. Ala(4-thiazolyl) = N[C@@H](Cc1cscn1)C(=O)O; 1Nal = N[C@@H](Cc1cccc2ccccc12)C(=O)O; Phe(2-F) = N[C@@H](Cc1ccccc1F)C(=O)O; Chg = N[C@H](C(=O)O)C1CCCCC1; Nle = CCCC[C@H](N)C(=O)O

B1: SEQ ID NO: 9 (peptide)
peptide: [Ala(4-thiazolyl)]SQGTFTSDVSKQLESRRAQEFIEWLLAGGPESGAPPPS-OH
modifications: N-terminus assumed
SMILES: CC[C@H](C)[C@H](NC(=O)[C@H](Cc1ccccc1)NC(=O)[C@H](CCC(=O)O)NC(=O)[C@H](CCC(N)=O)NC(=O)[C@H](C)NC(=O)[C@H](CCCNC(=N)N)NC(=O)[C@H](CCCNC(=N)N)NC(=O)[C@H](CO)NC(=O)[C@H](CCC(=O)O)NC(=O)[C@H](CC(C)C)NC(=O)[C@H](CCC(N)=O)NC(=O)[C@H](CCCCN)NC(=O)[C@H](CO)NC(=O)[C@@H](NC(=O)[C@H](CC(=O)O)NC(=O)[C@H](CO)NC(=O)[C@@H](NC(=O)[C@H](Cc1ccccc1)NC(=O)[C@@H](NC(=O)CNC(=O)[C@H](CCC(N)=O)NC(=O)[C@H](CO)NC(=O)[C@@H](N)Cc1cscn1)[C@@H](C)O)[C@@H](C)O)C(C)C)C(=O)N[C@@H](CCC(=O)O)C(=O)N[C@@H](Cc1c[nH]c2ccccc12)C(=O)N[C@@H](CC(C)C)C(=O)N[C@@H](CC(C)C)C(=O)N[C@@H](C)C(=O)NCC(=O)NCC(=O)N1CCC[C@H]1C(=O)N[C@@H](CCC(=O)O)C(=O)N[C@@H](CO)C(=O)NCC(=O)N[C@@H](C)C(=O)N1CCC[C@H]1C(=O)N1CCC[C@H]1C(=O)N1CCC[C@H]1C(=O)N[C@@H](CO)C(=O)O
B2: SEQ ID NO: 13 (peptide)
peptide: [Ala(4-thiazolyl)]SQGTFTSDFSKQ[Nle]ESRRAQDFIEWLLATGPESGAPPPS-OH
modifications: N-terminus assumed
SMILES: CCCC[C@H](NC(=O)[C@H](CCC(N)=O)NC(=O)[C@H](CCCCN)NC(=O)[C@H](CO)NC(=O)[C@H](Cc1ccccc1)NC(=O)[C@H](CC(=O)O)NC(=O)[C@H](CO)NC(=O)[C@@H](NC(=O)[C@H](Cc1ccccc1)NC(=O)[C@@H](NC(=O)CNC(=O)[C@H](CCC(N)=O)NC(=O)[C@H](CO)NC(=O)[C@@H](N)Cc1cscn1)[C@@H](C)O)[C@@H](C)O)C(=O)N[C@@H](CCC(=O)O)C(=O)N[C@@H](CO)C(=O)N[C@@H](CCCNC(=N)N)C(=O)N[C@@H](CCCNC(=N)N)C(=O)N[C@@H](C)C(=O)N[C@@H](CCC(N)=O)C(=O)N[C@@H](CC(=O)O)C(=O)N[C@@H](Cc1ccccc1)C(=O)N[C@H](C(=O)N[C@@H](CCC(=O)O)C(=O)N[C@@H](Cc1c[nH]c2ccccc12)C(=O)N[C@@H](CC(C)C)C(=O)N[C@@H](CC(C)C)C(=O)N[C@@H](C)C(=O)N[C@H](C(=O)NCC(=O)N1CCC[C@H]1C(=O)N[C@@H](CCC(=O)O)C(=O)N[C@@H](CO)C(=O)NCC(=O)N[C@@H](C)C(=O)N1CCC[C@H]1C(=O)N1CCC[C@H]1C(=O)N1CCC[C@H]1C(=O)N[C@@H](CO)C(=O)O)[C@@H](C)O)[C@@H](C)CC
B3: SEQ ID NO: 18 (peptide)
peptide: [Ala(4-thiazolyl)]SQGTFTSD[Phe(2-F)]SKQ[Nle]ESRRAQDFIEWLLATGPESGAPPPS-OH
modifications: N-terminus assumed
SMILES: CCCC[C@H](NC(=O)[C@H](CCC(N)=O)NC(=O)[C@H](CCCCN)NC(=O)[C@H](CO)NC(=O)[C@H](Cc1ccccc1F)NC(=O)[C@H](CC(=O)O)NC(=O)[C@H](CO)NC(=O)[C@@H](NC(=O)[C@H](Cc1ccccc1)NC(=O)[C@@H](NC(=O)CNC(=O)[C@H](CCC(N)=O)NC(=O)[C@H](CO)NC(=O)[C@@H](N)Cc1cscn1)[C@@H](C)O)[C@@H](C)O)C(=O)N[C@@H](CCC(=O)O)C(=O)N[C@@H](CO)C(=O)N[C@@H](CCCNC(=N)N)C(=O)N[C@@H](CCCNC(=N)N)C(=O)N[C@@H](C)C(=O)N[C@@H](CCC(N)=O)C(=O)N[C@@H](CC(=O)O)C(=O)N[C@@H](Cc1ccccc1)C(=O)N[C@H](C(=O)N[C@@H](CCC(=O)O)C(=O)N[C@@H](Cc1c[nH]c2ccccc12)C(=O)N[C@@H](CC(C)C)C(=O)N[C@@H](CC(C)C)C(=O)N[C@@H](C)C(=O)N[C@H](C(=O)NCC(=O)N1CCC[C@H]1C(=O)N[C@@H](CCC(=O)O)C(=O)N[C@@H](CO)C(=O)NCC(=O)N[C@@H](C)C(=O)N1CCC[C@H]1C(=O)N1CCC[C@H]1C(=O)N1CCC[C@H]1C(=O)N[C@@H](CO)C(=O)O)[C@@H](C)O)[C@@H](C)CC
B4: SEQ ID NO: 19 (peptide)
peptide: [Ala(4-thiazolyl)]SQGTFTSD[1Nal]SKQ[Nle]ESRRAQDFIEWLLATGPESGAPPPS-OH
modifications: N-terminus assumed
SMILES: CCCC[C@H](NC(=O)[C@H](CCC(N)=O)NC(=O)[C@H](CCCCN)NC(=O)[C@H](CO)NC(=O)[C@H](Cc1cccc2ccccc12)NC(=O)[C@H](CC(=O)O)NC(=O)[C@H](CO)NC(=O)[C@@H](NC(=O)[C@H](Cc1ccccc1)NC(=O)[C@@H](NC(=O)CNC(=O)[C@H](CCC(N)=O)NC(=O)[C@H](CO)NC(=O)[C@@H](N)Cc1cscn1)[C@@H](C)O)[C@@H](C)O)C(=O)N[C@@H](CCC(=O)O)C(=O)N[C@@H](CO)C(=O)N[C@@H](CCCNC(=N)N)C(=O)N[C@@H](CCCNC(=N)N)C(=O)N[C@@H](C)C(=O)N[C@@H](CCC(N)=O)C(=O)N[C@@H](CC(=O)O)C(=O)N[C@@H](Cc1ccccc1)C(=O)N[C@H](C(=O)N[C@@H](CCC(=O)O)C(=O)N[C@@H](Cc1c[nH]c2ccccc12)C(=O)N[C@@H](CC(C)C)C(=O)N[C@@H](CC(C)C)C(=O)N[C@@H](C)C(=O)N[C@H](C(=O)NCC(=O)N1CCC[C@H]1C(=O)N[C@@H](CCC(=O)O)C(=O)N[C@@H](CO)C(=O)NCC(=O)N[C@@H](C)C(=O)N1CCC[C@H]1C(=O)N1CCC[C@H]1C(=O)N1CCC[C@H]1C(=O)N[C@@H](CO)C(=O)O)[C@@H](C)O)[C@@H](C)CC
B5: SEQ ID NO: 20 (peptide)
peptide: [Ala(4-thiazolyl)]SQGTFTSD[Chg]SKQ[Nle]ESRRAQDFIEWLLATGPESGAPPPS-OH
modifications: N-terminus assumed
SMILES: CCCC[C@H](NC(=O)[C@H](CCC(N)=O)NC(=O)[C@H](CCCCN)NC(=O)[C@H](CO)NC(=O)[C@@H](NC(=O)[C@H](CC(=O)O)NC(=O)[C@H](CO)NC(=O)[C@@H](NC(=O)[C@H](Cc1ccccc1)NC(=O)[C@@H](NC(=O)CNC(=O)[C@H](CCC(N)=O)NC(=O)[C@H](CO)NC(=O)[C@@H](N)Cc1cscn1)[C@@H](C)O)[C@@H](C)O)C1CCCCC1)C(=O)N[C@@H](CCC(=O)O)C(=O)N[C@@H](CO)C(=O)N[C@@H](CCCNC(=N)N)C(=O)N[C@@H](CCCNC(=N)N)C(=O)N[C@@H](C)C(=O)N[C@@H](CCC(N)=O)C(=O)N[C@@H](CC(=O)O)C(=O)N[C@@H](Cc1ccccc1)C(=O)N[C@H](C(=O)N[C@@H](CCC(=O)O)C(=O)N[C@@H](Cc1c[nH]c2ccccc12)C(=O)N[C@@H](CC(C)C)C(=O)N[C@@H](CC(C)C)C(=O)N[C@@H](C)C(=O)N[C@H](C(=O)NCC(=O)N1CCC[C@H]1C(=O)N[C@@H](CCC(=O)O)C(=O)N[C@@H](CO)C(=O)NCC(=O)N[C@@H](C)C(=O)N1CCC[C@H]1C(=O)N1CCC[C@H]1C(=O)N1CCC[C@H]1C(=O)N[C@@H](CO)C(=O)O)[C@@H](C)O)[C@@H](C)CC
B6: SEQ ID NO: 21 (peptide)
peptide: [Ala(4-thiazolyl)]SQGTFTSD[Phe(2-F)]SKQLESRRAQDFIEWLLATGPESGAPPPS-OH
modifications: N-terminus assumed
SMILES: CC[C@H](C)[C@H](NC(=O)[C@H](Cc1ccccc1)NC(=O)[C@H](CC(=O)O)NC(=O)[C@H](CCC(N)=O)NC(=O)[C@H](C)NC(=O)[C@H](CCCNC(=N)N)NC(=O)[C@H](CCCNC(=N)N)NC(=O)[C@H](CO)NC(=O)[C@H](CCC(=O)O)NC(=O)[C@H](CC(C)C)NC(=O)[C@H](CCC(N)=O)NC(=O)[C@H](CCCCN)NC(=O)[C@H](CO)NC(=O)[C@H](Cc1ccccc1F)NC(=O)[C@H](CC(=O)O)NC(=O)[C@H](CO)NC(=O)[C@@H](NC(=O)[C@H](Cc1ccccc1)NC(=O)[C@@H](NC(=O)CNC(=O)[C@H](CCC(N)=O)NC(=O)[C@H](CO)NC(=O)[C@@H](N)Cc1cscn1)[C@@H](C)O)[C@@H](C)O)C(=O)N[C@@H](CCC(=O)O)C(=O)N[C@@H](Cc1c[nH]c2ccccc12)C(=O)N[C@@H](CC(C)C)C(=O)N[C@@H](CC(C)C)C(=O)N[C@@H](C)C(=O)N[C@H](C(=O)NCC(=O)N1CCC[C@H]1C(=O)N[C@@H](CCC(=O)O)C(=O)N[C@@H](CO)C(=O)NCC(=O)N[C@@H](C)C(=O)N1CCC[C@H]1C(=O)N1CCC[C@H]1C(=O)N1CCC[C@H]1C(=O)N[C@@H](CO)C(=O)O)[C@@H](C)O
B7: SEQ ID NO: 22 (peptide)
peptide: [Ala(4-thiazolyl)]SQGTFTSD[1Nal]SKQLESRRAQDFIEWLLATGPESGAPPPS-OH
modifications: N-terminus assumed
SMILES: CC[C@H](C)[C@H](NC(=O)[C@H](Cc1ccccc1)NC(=O)[C@H](CC(=O)O)NC(=O)[C@H](CCC(N)=O)NC(=O)[C@H](C)NC(=O)[C@H](CCCNC(=N)N)NC(=O)[C@H](CCCNC(=N)N)NC(=O)[C@H](CO)NC(=O)[C@H](CCC(=O)O)NC(=O)[C@H](CC(C)C)NC(=O)[C@H](CCC(N)=O)NC(=O)[C@H](CCCCN)NC(=O)[C@H](CO)NC(=O)[C@H](Cc1cccc2ccccc12)NC(=O)[C@H](CC(=O)O)NC(=O)[C@H](CO)NC(=O)[C@@H](NC(=O)[C@H](Cc1ccccc1)NC(=O)[C@@H](NC(=O)CNC(=O)[C@H](CCC(N)=O)NC(=O)[C@H](CO)NC(=O)[C@@H](N)Cc1cscn1)[C@@H](C)O)[C@@H](C)O)C(=O)N[C@@H](CCC(=O)O)C(=O)N[C@@H](Cc1c[nH]c2ccccc12)C(=O)N[C@@H](CC(C)C)C(=O)N[C@@H](CC(C)C)C(=O)N[C@@H](C)C(=O)N[C@H](C(=O)NCC(=O)N1CCC[C@H]1C(=O)N[C@@H](CCC(=O)O)C(=O)N[C@@H](CO)C(=O)NCC(=O)N[C@@H](C)C(=O)N1CCC[C@H]1C(=O)N1CCC[C@H]1C(=O)N1CCC[C@H]1C(=O)N[C@@H](CO)C(=O)O)[C@@H](C)O

molecular target: human glucagon receptor (human, UniProt P47871 26-477); experiment: cell-based or functional assay
Sequence (P47871 26-477): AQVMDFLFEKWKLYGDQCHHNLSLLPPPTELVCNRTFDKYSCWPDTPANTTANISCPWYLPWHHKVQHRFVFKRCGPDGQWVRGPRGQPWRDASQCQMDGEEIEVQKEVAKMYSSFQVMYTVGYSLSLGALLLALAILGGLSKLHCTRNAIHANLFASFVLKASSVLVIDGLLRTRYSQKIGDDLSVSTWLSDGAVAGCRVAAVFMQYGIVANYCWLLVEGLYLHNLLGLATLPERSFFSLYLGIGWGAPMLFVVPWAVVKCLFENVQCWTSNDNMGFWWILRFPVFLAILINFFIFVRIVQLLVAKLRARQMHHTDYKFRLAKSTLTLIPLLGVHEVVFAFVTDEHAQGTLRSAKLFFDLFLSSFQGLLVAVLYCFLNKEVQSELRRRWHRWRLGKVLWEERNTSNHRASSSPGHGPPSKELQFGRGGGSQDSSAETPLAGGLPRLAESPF

| Binder | EC50 hGLUC R [pM], cAMP formation [pM] |
| --- | --- |
| B1 | 2.2 |
| B2 | 3.1 |
| XSQGTFTSDISKQXESRRAQEFIEWLLATGPESGAPPPS (Tza (L-4-thiazolylalanine) at position 1; Nle at position 14; C-terminal -OH) [SEQ ID NO: 14] | 1.2 |
| XSQGTFTSDYSKQXESRRAQEFIEWLLATGPESGAPPPS (Tza (L-4-thiazolylalanine) at position 1; Nle at position 14; C-terminal -OH) [SEQ ID NO: 17] | 1 |
| B3 | 3.1 |
| B4 | 0.7 |
| B5 | 3.8 |
| B6 | 1.4 |
| B7 | 1 |

molecular target: human GLP-1 receptor (human, UniProt P43220 24-463); experiment: cell-based or functional assay

| Binder | EC50 hGLP-1 R [pM], cAMP formation [pM] |
| --- | --- |
| B1 | 12200 |
| B2 | 32100 |
| XSQGTFTSDISKQXESRRAQEFIEWLLATGPESGAPPPS (Tza (L-4-thiazolylalanine) at position 1; Nle at position 14; C-terminal -OH) [SEQ ID NO: 14] | 52900 |
| XSQGTFTSDYSKQXESRRAQEFIEWLLATGPESGAPPPS (Tza (L-4-thiazolylalanine) at position 1; Nle at position 14; C-terminal -OH) [SEQ ID NO: 17] | 6940 |
| B3 | 25800 |
| B4 | 6640 |
| B5 | 38900 |
| B6 | 49700 |
| B7 | 8570 |
